# Experimental data from article PMC9468158, “Transmembrane helices mediate the formation of a stable ternary complex of b5R, cyt b5, and SCD1” (Communications Biology, 2022).
# B1: full-length cyt b5, released from the linker-cleaved cyt b5-b5R fusion (natural protein, mouse, UniProt P56395 1-134, looked up)
# chain: MAGQSDKDVKYYTLEEIQKHKDSKSTWVILHHKVYDLTKFLEEHPGGEEVLREQAGGDATENFEDVGHSTDARELSKTYIIGELHPDDRSKIAKPSDTLITTVESNSSWWTNWVIPAISALAVALMYRLYMAED
# B2: soluble cyt b5 (4-89), wild type (domain or fragment, mouse, UniProt P56395 4-89, looked up)
# chain: QSDKDVKYYTLEEIQKHKDSKSTWVILHHKVYDLTKFLEEHPGGEEVLREQAGGDATENFEDVGHSTDARELSKTYIIGELHPDDR
# notes: cytochrome b5, mouse, UniProt P56395, soluble domain, residues 4-89; coupled by amines to AR2G biosensors; also called cyt b5 (WT); source: E. coli BL21(DE3) (pET vector), purified (procedures similar to those for the full-length proteins)
# B3: soluble cyt b5 (4-89) E43A (domain or fragment, mouse, UniProt P56395 4-89, looked up)
# chain: QSDKDVKYYTLEEIQKHKDSKSTWVILHHKVYDLTKFLEAHPGGEEVLREQAGGDATENFEDVGHSTDARELSKTYIIGELHPDDR
# notes: cytochrome b5, mouse, UniProt P56395, soluble domain, residues 4-89; coupled by amines to AR2G biosensors; also called cyt b5 (E43A); source: E. coli BL21(DE3) (pET vector), purified (procedures similar to those for the full-length proteins)
# B4: soluble cyt b5 (4-89) E49A (domain or fragment, mouse, UniProt P56395 4-89, looked up)
# chain: QSDKDVKYYTLEEIQKHKDSKSTWVILHHKVYDLTKFLEEHPGGEAVLREQAGGDATENFEDVGHSTDARELSKTYIIGELHPDDR
# notes: cytochrome b5, mouse, UniProt P56395, soluble domain, residues 4-89; coupled by amines to AR2G biosensors; also called cyt b5 (E49A); source: E. coli BL21(DE3) (pET vector), purified (procedures similar to those for the full-length proteins)
# B5: cyt b5 Y127A, released from the linker-cleaved SCD1-cyt b5-TEV chimera (natural protein, mouse, UniProt P56395 1-134, looked up)
# chain: MAGQSDKDVKYYTLEEIQKHKDSKSTWVILHHKVYDLTKFLEEHPGGEEVLREQAGGDATENFEDVGHSTDARELSKTYIIGELHPDDRSKIAKPSDTLITTVESNSSWWTNWVIPAISALAVALMARLYMAED
# notes: cytochrome b5, mouse, UniProt P56395; as m11 with the mutation; source: HEK 293S (BacMam), purified as a fusion with SCD1, cleaved by TEV protease; not shown: GFP, C-terminal, cleaved
# B6: cyt b5 L125W, released from the linker-cleaved SCD1-cyt b5-TEV chimera (natural protein, mouse, UniProt P56395 1-134, looked up)
# chain: MAGQSDKDVKYYTLEEIQKHKDSKSTWVILHHKVYDLTKFLEEHPGGEEVLREQAGGDATENFEDVGHSTDARELSKTYIIGELHPDDRSKIAKPSDTLITTVESNSSWWTNWVIPAISALAVAWMYRLYMAED
# notes: as for B5
# B7: cyt b5 M126A, released from the linker-cleaved SCD1-cyt b5-TEV chimera (natural protein, mouse, UniProt P56395 1-134, looked up)
# chain: MAGQSDKDVKYYTLEEIQKHKDSKSTWVILHHKVYDLTKFLEEHPGGEEVLREQAGGDATENFEDVGHSTDARELSKTYIIGELHPDDRSKIAKPSDTLITTVESNSSWWTNWVIPAISALAVALAYRLYMAED
# notes: as for B5
# B8: cyt b5 A122W, released from the linker-cleaved SCD1-cyt b5-TEV chimera (natural protein, mouse, UniProt P56395 1-134, looked up)
# chain: MAGQSDKDVKYYTLEEIQKHKDSKSTWVILHHKVYDLTKFLEEHPGGEEVLREQAGGDATENFEDVGHSTDARELSKTYIIGELHPDDRSKIAKPSDTLITTVESNSSWWTNWVIPAISALWVALMYRLYMAED
# notes: as for B5
# B9: cyt b5 R128A, released from the linker-cleaved SCD1-cyt b5-TEV chimera (natural protein, mouse, UniProt P56395 1-134, looked up)
# chain: MAGQSDKDVKYYTLEEIQKHKDSKSTWVILHHKVYDLTKFLEEHPGGEEVLREQAGGDATENFEDVGHSTDARELSKTYIIGELHPDDRSKIAKPSDTLITTVESNSSWWTNWVIPAISALAVALMYALYMAED
# notes: as for B5
# B10: cyt b5 L121W, released from the linker-cleaved SCD1-cyt b5-TEV chimera (natural protein, mouse, UniProt P56395 1-134, looked up)
# chain: MAGQSDKDVKYYTLEEIQKHKDSKSTWVILHHKVYDLTKFLEEHPGGEEVLREQAGGDATENFEDVGHSTDARELSKTYIIGELHPDDRSKIAKPSDTLITTVESNSSWWTNWVIPAISAWAVALMYRLYMAED
# notes: as for B5
# B11: cyt b5 S119A, released from the linker-cleaved cyt b5-b5R-TEV chimera (natural protein, mouse, UniProt P56395 1-134, looked up)
# chain: MAGQSDKDVKYYTLEEIQKHKDSKSTWVILHHKVYDLTKFLEEHPGGEEVLREQAGGDATENFEDVGHSTDARELSKTYIIGELHPDDRSKIAKPSDTLITTVESNSSWWTNWVIPAIAALAVALMYRLYMAED
# notes: cytochrome b5, mouse, UniProt P56395; as m6 with the mutation; source: High Five cells (Bac-to-Bac), purified as a fusion with b5R, cleaved by TEV protease
# B12: cyt b5 L121W, released from the linker-cleaved cyt b5-b5R-TEV chimera (natural protein, mouse, UniProt P56395 1-134, looked up)
# chain: MAGQSDKDVKYYTLEEIQKHKDSKSTWVILHHKVYDLTKFLEEHPGGEEVLREQAGGDATENFEDVGHSTDARELSKTYIIGELHPDDRSKIAKPSDTLITTVESNSSWWTNWVIPAISAWAVALMYRLYMAED
# notes: as for B11
# B13: cyt b5 R128A, released from the linker-cleaved cyt b5-b5R-TEV chimera (natural protein, mouse, UniProt P56395 1-134, looked up)
# chain: MAGQSDKDVKYYTLEEIQKHKDSKSTWVILHHKVYDLTKFLEEHPGGEEVLREQAGGDATENFEDVGHSTDARELSKTYIIGELHPDDRSKIAKPSDTLITTVESNSSWWTNWVIPAISALAVALMYALYMAED
# notes: as for B11
# B14: cyt b5 V123W, released from the linker-cleaved cyt b5-b5R-TEV chimera (natural protein, mouse, UniProt P56395 1-134, looked up)
# chain: MAGQSDKDVKYYTLEEIQKHKDSKSTWVILHHKVYDLTKFLEEHPGGEEVLREQAGGDATENFEDVGHSTDARELSKTYIIGELHPDDRSKIAKPSDTLITTVESNSSWWTNWVIPAISALAWALMYRLYMAED
# notes: as for B11
# B15: cyt b5 A122W, released from the linker-cleaved cyt b5-b5R-TEV chimera (natural protein, mouse, UniProt P56395 1-134, looked up)
# chain: MAGQSDKDVKYYTLEEIQKHKDSKSTWVILHHKVYDLTKFLEEHPGGEEVLREQAGGDATENFEDVGHSTDARELSKTYIIGELHPDDRSKIAKPSDTLITTVESNSSWWTNWVIPAISALWVALMYRLYMAED
# notes: as for B11
# B16: cyt b5 M126A, released from the linker-cleaved cyt b5-b5R-TEV chimera (natural protein, mouse, UniProt P56395 1-134, looked up)
# chain: MAGQSDKDVKYYTLEEIQKHKDSKSTWVILHHKVYDLTKFLEEHPGGEEVLREQAGGDATENFEDVGHSTDARELSKTYIIGELHPDDRSKIAKPSDTLITTVESNSSWWTNWVIPAISALAVALAYRLYMAED
# notes: as for B11
# B17: cyt b5 Y127A, released from the linker-cleaved cyt b5-b5R-TEV chimera (natural protein, mouse, UniProt P56395 1-134, looked up)
# chain: MAGQSDKDVKYYTLEEIQKHKDSKSTWVILHHKVYDLTKFLEEHPGGEEVLREQAGGDATENFEDVGHSTDARELSKTYIIGELHPDDRSKIAKPSDTLITTVESNSSWWTNWVIPAISALAVALMARLYMAED
# notes: as for B11
# B18: cyt b5 A124W, released from the linker-cleaved cyt b5-b5R-TEV chimera (natural protein, mouse, UniProt P56395 1-134, looked up)
# chain: MAGQSDKDVKYYTLEEIQKHKDSKSTWVILHHKVYDLTKFLEEHPGGEEVLREQAGGDATENFEDVGHSTDARELSKTYIIGELHPDDRSKIAKPSDTLITTVESNSSWWTNWVIPAISALAVWLMYRLYMAED
# notes: as for B11
# Target: T1, full-length b5R, released from the linker-cleaved cyt b5-b5R fusion (mouse, UniProt Q9DCN2 1-301)
# T1 sequence (looked up): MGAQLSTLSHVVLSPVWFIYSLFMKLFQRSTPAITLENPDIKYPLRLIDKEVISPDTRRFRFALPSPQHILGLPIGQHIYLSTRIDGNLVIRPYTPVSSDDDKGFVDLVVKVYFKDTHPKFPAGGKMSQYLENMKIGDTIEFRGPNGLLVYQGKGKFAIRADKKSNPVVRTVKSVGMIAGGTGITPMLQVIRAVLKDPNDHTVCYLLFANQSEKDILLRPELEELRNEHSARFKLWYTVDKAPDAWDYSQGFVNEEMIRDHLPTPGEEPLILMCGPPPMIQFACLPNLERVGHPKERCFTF
# Assay: cell-based or functional assay
# Settings: not given
Binder,"difference of the electron transfer rate between no NaCl and 150 mM NaCl, stable binary complex [fold]","rate of electron transfer from b5R to cyt b5 (k1, reduction of cyt b5) in the stable binary complex against the mixture of the individual proteins, 150 mM NaCl [fold]"
B1,1.04,~34

# Target: T2, soluble b5R (24-301) (mouse, UniProt Q9DCN2 24-301)
# T2 construct: source: E. coli BL21(DE3) (pET vector), purified (procedures similar to those for the full-length proteins)
# T2 sequence (looked up): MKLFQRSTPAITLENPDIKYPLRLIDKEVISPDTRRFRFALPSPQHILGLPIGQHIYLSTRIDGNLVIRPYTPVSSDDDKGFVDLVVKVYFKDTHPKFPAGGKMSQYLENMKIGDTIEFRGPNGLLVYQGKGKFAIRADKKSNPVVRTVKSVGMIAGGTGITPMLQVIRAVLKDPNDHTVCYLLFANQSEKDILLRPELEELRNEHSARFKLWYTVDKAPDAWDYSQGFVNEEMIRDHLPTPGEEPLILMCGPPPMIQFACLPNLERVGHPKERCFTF
# Assay: BLI; Octet, 30 °C, 1000 rpm; soluble cyt b5 coupled to AR2G (amine reactive) biosensors; analytes soluble b5R or SCD1 at 5, 2.5 and 1.25 µM; FPLC buffer (20 mM HEPES pH 7.5, 150 mM NaCl, 1 mM DDM) plus 0.1% BSA; KD from kon and koff of 1-exponential fits
# Settings: both partners purified
row,Binder,Kd [µM]
1,B2,2.71
2,B3,9.63
3,B4,8.45

# Target: T3, SCD1, individual purified protein (mouse, UniProt P13516 1-355)
# T3 construct: stearoyl-CoA desaturase-1 (SCD1), mouse, UniProt P13516; surmised: ENLYFQ of the TEV site is left at the C-terminus; source: HEK 293S (BacMam), purified (GFP nanobody resin, released by TEV protease, SEC in 1 mM DDM); not shown: GFP, C-terminal, cleaved
# T3 sequence (looked up): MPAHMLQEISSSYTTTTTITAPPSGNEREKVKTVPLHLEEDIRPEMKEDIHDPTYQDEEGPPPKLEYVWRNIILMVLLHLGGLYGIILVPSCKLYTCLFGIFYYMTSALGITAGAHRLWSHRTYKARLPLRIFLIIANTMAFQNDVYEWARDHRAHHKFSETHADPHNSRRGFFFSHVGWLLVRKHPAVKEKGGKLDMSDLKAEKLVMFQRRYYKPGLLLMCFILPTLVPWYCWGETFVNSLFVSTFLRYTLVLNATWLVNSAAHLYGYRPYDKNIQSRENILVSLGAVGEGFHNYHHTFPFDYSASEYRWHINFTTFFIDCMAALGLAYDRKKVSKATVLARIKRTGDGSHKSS
# Assay: as above
# Settings: both partners purified
row,Binder,Kd [µM]
1,B2,4.42
2,B3,11.2
3,B4,8.23

# Target: T4, SCD1, released from the linker-cleaved SCD1-cyt b5 fusions (mouse, UniProt P13516 1-355)
# T4 construct: stearoyl-CoA desaturase-1 (SCD1), mouse, UniProt P13516; stands for the SCD1 chain of the fusion with full-length cyt b5 (wild type and TM mutants) and of the fusion with the soluble domain of cyt b5; the GFP tag stood at the C-terminus of the fusion; surmised: ENLYFQ is left at the C-terminus after cleavage
# T4 sequence (looked up): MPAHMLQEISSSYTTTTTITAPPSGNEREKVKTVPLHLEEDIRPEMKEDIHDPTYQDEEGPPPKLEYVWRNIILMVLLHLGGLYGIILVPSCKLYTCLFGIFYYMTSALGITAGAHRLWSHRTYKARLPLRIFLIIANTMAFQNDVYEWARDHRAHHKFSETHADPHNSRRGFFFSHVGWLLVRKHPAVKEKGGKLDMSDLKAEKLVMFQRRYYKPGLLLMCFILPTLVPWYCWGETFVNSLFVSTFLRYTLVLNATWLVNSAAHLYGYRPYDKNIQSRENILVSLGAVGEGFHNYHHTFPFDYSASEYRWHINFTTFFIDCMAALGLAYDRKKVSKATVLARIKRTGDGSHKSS
# Assay: SEC; TM mutants in the linker-cleavable fusions, purified and cleaved by TEV protease; SRE-10C SEC-300 (Sepax) on HPLC, FPLC buffer, 0.75 mL/min; heme absorbance (413 nm by the results, 423 nm by the methods) gives the ratio of heterodimer to monomeric cyt b5
# Settings: both partners purified
row,Binder,percent dissociation of the complex [%]
1,B5,~10
2,B6,~40
3,B7,~50
4,B8,~40
5,B9,~10
6,B10,~40

# Target: T1, full-length b5R, released from the …
# Assay: as above
# Settings: both partners purified
Binder,binding result,percent dissociation of the complex [%]
B11,binds,–
B12,binds,–
B13,–,~40
B14,binds,–
B15,binds,–
B16,binds,–
B17,binds,–
B18,–,~40
